Bridge positions count the residues as written; N and C are the ends. Square brackets hold non-standard residues; d marks the D form. Ends that are not written are not given here. Pro(cis-4-CF3) = O=C(O)[C@@H]1C[C@H](C(F)(F)F)CN1; Oic = O=C(O)[C@@H]1C[C@@H]2CCCC[C@@H]2N1; tBuAla = CC(C)(C)C[C@H](N)C(=O)O; Chg = N[C@H](C(=O)O)C1CCCCC1; PEG4 = NCCOCCOCCOCCOCCC(=O)O; Pen = CC(C)(S)[C@H](N)C(=O)O; Tranexamic = tranexamic acid; NMeC = CN[C@@H](CS)C(=O)O; NMeA = CN[C@@H](C)C(=O)O; Dab = NCC[C@H](N)C(=O)O; Abu = CC[C@H](N)C(=O)O; Sar = CNCC(=O)O

For experiment [1], the target named is Recombinant human MASP2 enzyme (fragment corresponding to amino acids 297-686, C-terminal His Tag) (human, UniProt O00187 297-686). The experiment in a line: cell-based or functional assay.
Experiment [2] concerns the target T1, Recombinant human MASP1 enzyme (fragment corresponding to amino acids 297-699, C-terminal His Tag) (human, UniProt P48740 297-699).
T1 sequence: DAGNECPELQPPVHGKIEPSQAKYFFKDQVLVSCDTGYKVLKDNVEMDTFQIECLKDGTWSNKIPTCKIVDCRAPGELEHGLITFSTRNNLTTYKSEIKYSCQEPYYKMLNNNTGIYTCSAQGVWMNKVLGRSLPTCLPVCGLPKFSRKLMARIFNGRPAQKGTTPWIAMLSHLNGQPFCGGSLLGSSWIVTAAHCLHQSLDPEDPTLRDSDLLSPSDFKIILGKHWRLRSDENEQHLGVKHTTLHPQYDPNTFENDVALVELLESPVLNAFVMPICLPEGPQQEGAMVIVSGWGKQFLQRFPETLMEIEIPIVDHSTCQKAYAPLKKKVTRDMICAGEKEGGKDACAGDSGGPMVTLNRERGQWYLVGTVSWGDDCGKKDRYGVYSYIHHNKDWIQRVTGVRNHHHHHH
The experiment can be described thus: cell-based or functional assay.

Recombinant human MASP2 enzyme (fragment corresponding to amino acids 297-686, C-terminal His Tag), sequence (O00187 other isoform, or with tags, fused parts or gaps limits assumed): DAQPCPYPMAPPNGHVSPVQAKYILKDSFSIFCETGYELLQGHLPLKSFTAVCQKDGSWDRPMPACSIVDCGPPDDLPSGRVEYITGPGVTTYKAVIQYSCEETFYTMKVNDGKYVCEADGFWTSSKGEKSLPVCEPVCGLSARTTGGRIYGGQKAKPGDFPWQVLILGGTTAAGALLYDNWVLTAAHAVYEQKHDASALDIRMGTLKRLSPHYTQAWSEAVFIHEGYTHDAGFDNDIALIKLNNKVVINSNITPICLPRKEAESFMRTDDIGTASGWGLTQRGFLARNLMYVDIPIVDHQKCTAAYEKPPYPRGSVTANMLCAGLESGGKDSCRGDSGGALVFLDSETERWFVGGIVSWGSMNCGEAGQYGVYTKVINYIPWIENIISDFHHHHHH

B1: AIC+SRSLP-(Oic)-I-((N-Me)C)+I-NH2 (peptide)
peptide: AICSRSLP[Oic]I[NMeC]I-NH2
modifications: disulfide 3-11; N-terminus assumed
SMILES: CC[C@H](C)[C@H](NC(=O)[C@@H]1CSSC[C@H](NC(=O)[C@@H](NC(=O)[C@H](C)N)[C@@H](C)CC)C(=O)N[C@@H](CO)C(=O)N[C@@H](CCCNC(=N)N)C(=O)N[C@@H](CO)C(=O)N[C@@H](CC(C)C)C(=O)N2CCC[C@H]2C(=O)N2[C@@H](C[C@@H]3CCCC[C@@H]32)C(=O)N[C@@H]([C@@H](C)CC)C(=O)N1C)C(N)=O
In the case of B1, the “human MASP2 IC50” value in experiment [1] came to 170 nM. For the same molecule, the “human MASP1 IC50” value in experiment [2] stood at 3.9 nM.

B2: aIC+SRSLP-(Oic)-I-(Pen)+I-NH2 (peptide)
peptide: [dA]ICSRSLP[Oic]I[Pen]I-NH2
modifications: disulfide 3-11; N-terminus assumed
SMILES: CC[C@H](C)[C@H](NC(=O)[C@H]1NC(=O)[C@H]([C@@H](C)CC)NC(=O)[C@@H]2C[C@@H]3CCCC[C@@H]3N2C(=O)[C@@H]2CCCN2C(=O)[C@H](CC(C)C)NC(=O)[C@H](CO)NC(=O)[C@H](CCCNC(=N)N)NC(=O)[C@H](CO)NC(=O)[C@@H](NC(=O)[C@@H](NC(=O)[C@@H](C)N)[C@@H](C)CC)CSSC1(C)C)C(N)=O
Consider B2, for which the “human MASP2 IC50” value in experiment [1] amounted to 100 nM. Moreover, in experiment [2], the “human MASP1 IC50” value worked out at 3.9 nM.

B3: aIC+SRSLP-(Oic)-I-(Pen)+IP-NH2 (peptide)
peptide: [dA]ICSRSLP[Oic]I[Pen]IP-NH2
modifications: disulfide 3-11; N-terminus assumed
SMILES: CC[C@H](C)[C@H](NC(=O)[C@@H](C)N)C(=O)N[C@H]1CSSC(C)(C)[C@@H](C(=O)N[C@H](C(=O)N2CCC[C@H]2C(N)=O)[C@@H](C)CC)NC(=O)[C@H]([C@@H](C)CC)NC(=O)[C@@H]2C[C@@H]3CCCC[C@@H]3N2C(=O)[C@@H]2CCCN2C(=O)[C@H](CC(C)C)NC(=O)[C@H](CO)NC(=O)[C@H](CCCNC(=N)N)NC(=O)[C@H](CO)NC1=O
With B3, the “human MASP2 IC50” value in experiment [1] is 59 nM. Besides, the “human MASP1 IC50” value in experiment [2] worked out at 4.3 nM.

B4: ((N-Me)G)-IC+SRSLP-(Oic)-I-(Pen)+I-((5-Azaspiro[2.4]heptane-1-carboxylic acid)-OH (peptide)
peptide: [Sar]ICSRSLP[Oic]I[Pen]I[5‑Azaspiro(2.4)heptane‑1‑carboxylic acid]-OH
modifications: disulfide 3-11
With B4, the “human MASP2 IC50” value in experiment [1] is 57 nM. The “human MASP1 IC50” value in experiment [2] came to 4 nM.

B5: AIC+SRSLPPI-(Pen)+IPD-NH2 (peptide)
peptide: AICSRSLPPI[Pen]IPD-NH2
modifications: disulfide 3-11; N-terminus assumed
SMILES: CC[C@H](C)[C@H](NC(=O)[C@H](C)N)C(=O)N[C@H]1CSSC(C)(C)[C@@H](C(=O)N[C@H](C(=O)N2CCC[C@H]2C(=O)N[C@@H](CC(=O)O)C(N)=O)[C@@H](C)CC)NC(=O)[C@H]([C@@H](C)CC)NC(=O)[C@@H]2CCCN2C(=O)[C@@H]2CCCN2C(=O)[C@H](CC(C)C)NC(=O)[C@H](CO)NC(=O)[C@H](CCCNC(=N)N)NC(=O)[C@H](CO)NC1=O
In the case of B5, the “human MASP2 IC50” value in experiment [1] was found to be 68 nM. In addition, the “human MASP1 IC50” value in experiment [2] was determined as 4.3 nM.

B6: ((N-Me)G)-IC+SRSLP-(Oic)-I-(Pen)+IPD-NH2 (peptide)
peptide: [Sar]ICSRSLP[Oic]I[Pen]IPD-NH2
modifications: disulfide 3-11; N-terminus assumed
SMILES: CC[C@H](C)[C@H](NC(=O)CNC)C(=O)N[C@H]1CSSC(C)(C)[C@@H](C(=O)N[C@H](C(=O)N2CCC[C@H]2C(=O)N[C@@H](CC(=O)O)C(N)=O)[C@@H](C)CC)NC(=O)[C@H]([C@@H](C)CC)NC(=O)[C@@H]2C[C@@H]3CCCC[C@@H]3N2C(=O)[C@@H]2CCCN2C(=O)[C@H](CC(C)C)NC(=O)[C@H](CO)NC(=O)[C@H](CCCNC(=N)N)NC(=O)[C@H](CO)NC1=O
As to B6, the “human MASP2 IC50” value in experiment [1] was found to be 150 nM. Besides, in experiment [2], the “human MASP1 IC50” value turned out to be 4.05 nM.

B7: (Abu)-IC+SRSLPP-(Chg)-C+IPD-NH2 (peptide)
peptide: [Abu]ICSRSLPP[Chg]CIPD-NH2
modifications: disulfide 3-11; N-terminus assumed
SMILES: CC[C@H](N)C(=O)N[C@H](C(=O)N[C@H]1CSSC[C@@H](C(=O)N[C@H](C(=O)N2CCC[C@H]2C(=O)N[C@@H](CC(=O)O)C(N)=O)[C@@H](C)CC)NC(=O)[C@H](C2CCCCC2)NC(=O)[C@@H]2CCCN2C(=O)[C@@H]2CCCN2C(=O)[C@H](CC(C)C)NC(=O)[C@H](CO)NC(=O)[C@H](CCCNC(=N)N)NC(=O)[C@H](CO)NC1=O)[C@@H](C)CC
As to B7, the “human MASP2 IC50” value in experiment [1] stood at 52 nM. Also, in experiment [2], the “human MASP1 IC50” value was 4.25 nM.

B8: ((N-Me)G)-IC+SRSLP-(Oic)-I-(Pen)+IPE-NH2 (peptide)
peptide: [Sar]ICSRSLP[Oic]I[Pen]IPE-NH2
modifications: disulfide 3-11; N-terminus assumed
SMILES: CC[C@H](C)[C@H](NC(=O)CNC)C(=O)N[C@H]1CSSC(C)(C)[C@@H](C(=O)N[C@H](C(=O)N2CCC[C@H]2C(=O)N[C@@H](CCC(=O)O)C(N)=O)[C@@H](C)CC)NC(=O)[C@H]([C@@H](C)CC)NC(=O)[C@@H]2C[C@@H]3CCCC[C@@H]3N2C(=O)[C@@H]2CCCN2C(=O)[C@H](CC(C)C)NC(=O)[C@H](CO)NC(=O)[C@H](CCCNC(=N)N)NC(=O)[C@H](CO)NC1=O
With B8, the “human MASP2 IC50” value in experiment [1] was 200 nM. Also, the “human MASP1 IC50” value in experiment [2] came to 4.3 nM.

B9: ((N-Me)A)-IC+SRSLP-(Oic)-I-(Pen)+IPD-OH (peptide)
peptide: [NMeA]ICSRSLP[Oic]I[Pen]IPD-OH
modifications: disulfide 3-11; N-terminus assumed
SMILES: CC[C@H](C)[C@H](NC(=O)[C@H](C)NC)C(=O)N[C@H]1CSSC(C)(C)[C@@H](C(=O)N[C@H](C(=O)N2CCC[C@H]2C(=O)N[C@@H](CC(=O)O)C(=O)O)[C@@H](C)CC)NC(=O)[C@H]([C@@H](C)CC)NC(=O)[C@@H]2C[C@@H]3CCCC[C@@H]3N2C(=O)[C@@H]2CCCN2C(=O)[C@H](CC(C)C)NC(=O)[C@H](CO)NC(=O)[C@H](CCCNC(=N)N)NC(=O)[C@H](CO)NC1=O
As to B9, the “human MASP2 IC50” value in experiment [1] stood at 160 nM. In addition, in experiment [2], the “human MASP1 IC50” value was found to be 3.9 nM.

B10: ((N-Me)A)-IC+SRSLP-(Oic)-I-(Pen)+IPE-OH (peptide)
peptide: [NMeA]ICSRSLP[Oic]I[Pen]IPE-OH
modifications: disulfide 3-11; N-terminus assumed
SMILES: CC[C@H](C)[C@H](NC(=O)[C@H](C)NC)C(=O)N[C@H]1CSSC(C)(C)[C@@H](C(=O)N[C@H](C(=O)N2CCC[C@H]2C(=O)N[C@@H](CCC(=O)O)C(=O)O)[C@@H](C)CC)NC(=O)[C@H]([C@@H](C)CC)NC(=O)[C@@H]2C[C@@H]3CCCC[C@@H]3N2C(=O)[C@@H]2CCCN2C(=O)[C@H](CC(C)C)NC(=O)[C@H](CO)NC(=O)[C@H](CCCNC(=N)N)NC(=O)[C@H](CO)NC1=O
For B10, the “human MASP2 IC50” value in experiment [1] stood at 170 nM. Besides, the “human MASP1 IC50” value in experiment [2] is 3.9 nM.

B11: ((N-Me)G)-IC+SRS-((tBu)A)-PPI-(Pen)+IP-(PEG3(16atoms))-NH2 (peptide)
peptide: [Sar]ICSRS[tBuAla]PPI[Pen]IP[PEG4]-NH2
modifications: disulfide 3-11; N-terminus assumed
SMILES: CC[C@H](C)[C@H](NC(=O)CNC)C(=O)N[C@H]1CSSC(C)(C)[C@@H](C(=O)N[C@H](C(=O)N2CCC[C@H]2C(=O)NCCOCCOCCOCCOCCC(N)=O)[C@@H](C)CC)NC(=O)[C@H]([C@@H](C)CC)NC(=O)[C@@H]2CCCN2C(=O)[C@@H]2CCCN2C(=O)[C@H](CC(C)(C)C)NC(=O)[C@H](CO)NC(=O)[C@H](CCCNC(=N)N)NC(=O)[C@H](CO)NC1=O
As to B11, the “human MASP2 IC50” value in experiment [1] was found to be 65.5 nM. Also, the “human MASP1 IC50” value in experiment [2] stood at 4.35 nM.

B12: ((N-Me)G)-IC+SRSLP-(Oic)-I-(Pen)+IP-OH (peptide)
peptide: [Sar]ICSRSLP[Oic]I[Pen]IP-OH
modifications: disulfide 3-11; N-terminus assumed
SMILES: CC[C@H](C)[C@H](NC(=O)CNC)C(=O)N[C@H]1CSSC(C)(C)[C@@H](C(=O)N[C@H](C(=O)N2CCC[C@H]2C(=O)O)[C@@H](C)CC)NC(=O)[C@H]([C@@H](C)CC)NC(=O)[C@@H]2C[C@@H]3CCCC[C@@H]3N2C(=O)[C@@H]2CCCN2C(=O)[C@H](CC(C)C)NC(=O)[C@H](CO)NC(=O)[C@H](CCCNC(=N)N)NC(=O)[C@H](CO)NC1=O
In the case of B12, in experiment [1], the “human MASP2 IC50” value is 230 nM. Further, the “human MASP1 IC50” value in experiment [2] turned out to be 4.2 nM.

B13: AIC+SRS-((tBu)A)-PPI-(Pen)+IP-(Tranexamic)-NH2 (peptide)
peptide: AICSRS[tBuAla]PPI[Pen]IP[Tranexamic]-NH2
modifications: disulfide 3-11
With B13, the “human MASP2 IC50” value in experiment [1] turned out to be 30 nM. For the same molecule, the “human MASP1 IC50” value in experiment [2] was determined as 4.3 nM.

B14: AIC+SRS-((tBu)A)-P-((4-CF3)P)-IC+IPD-NH2 (peptide)
peptide: AICSRS[tBuAla]P[Pro(cis-4-CF3)]ICIPD-NH2
modifications: disulfide 3-11; N-terminus assumed
SMILES: CC[C@H](C)[C@H](NC(=O)[C@H](C)N)C(=O)N[C@H]1CSSC[C@@H](C(=O)N[C@H](C(=O)N2CCC[C@H]2C(=O)N[C@@H](CC(=O)O)C(N)=O)[C@@H](C)CC)NC(=O)[C@H]([C@@H](C)CC)NC(=O)[C@@H]2C[C@H](C(F)(F)F)CN2C(=O)[C@@H]2CCCN2C(=O)[C@H](CC(C)(C)C)NC(=O)[C@H](CO)NC(=O)[C@H](CCCNC(=N)N)NC(=O)[C@H](CO)NC1=O
As for B14, the “human MASP2 IC50” value in experiment [1] was 930 nM. Further, the “human MASP1 IC50” value in experiment [2] was found to be 3.9 nM.

B15: (Dab)-IC+SRS-((tBu)A)-PPI-(Pen)+IP-NH2 (peptide)
peptide: [Dab]ICSRS[tBuAla]PPI[Pen]IP-NH2
modifications: disulfide 3-11; N-terminus assumed
SMILES: CC[C@H](C)[C@H](NC(=O)[C@@H](N)CCN)C(=O)N[C@H]1CSSC(C)(C)[C@@H](C(=O)N[C@H](C(=O)N2CCC[C@H]2C(N)=O)[C@@H](C)CC)NC(=O)[C@H]([C@@H](C)CC)NC(=O)[C@@H]2CCCN2C(=O)[C@@H]2CCCN2C(=O)[C@H](CC(C)(C)C)NC(=O)[C@H](CO)NC(=O)[C@H](CCCNC(=N)N)NC(=O)[C@H](CO)NC1=O
For the molecule B15, the “human MASP2 IC50” value in experiment [1] stood at 64 nM. The “human MASP1 IC50” value in experiment [2] was 4 nM.

For the origin of these results see patent publication US20210246166A1 (Bayer, published 2021).
